Experimental data as given in patent US20250197525A1 (MINOTAUR THERAPEUTICS, published 2025).

Target: T1, IL2/15Rβ and γc receptor subunits (UniProt P31785 23-369, limits assumed)
T1 sequence 1: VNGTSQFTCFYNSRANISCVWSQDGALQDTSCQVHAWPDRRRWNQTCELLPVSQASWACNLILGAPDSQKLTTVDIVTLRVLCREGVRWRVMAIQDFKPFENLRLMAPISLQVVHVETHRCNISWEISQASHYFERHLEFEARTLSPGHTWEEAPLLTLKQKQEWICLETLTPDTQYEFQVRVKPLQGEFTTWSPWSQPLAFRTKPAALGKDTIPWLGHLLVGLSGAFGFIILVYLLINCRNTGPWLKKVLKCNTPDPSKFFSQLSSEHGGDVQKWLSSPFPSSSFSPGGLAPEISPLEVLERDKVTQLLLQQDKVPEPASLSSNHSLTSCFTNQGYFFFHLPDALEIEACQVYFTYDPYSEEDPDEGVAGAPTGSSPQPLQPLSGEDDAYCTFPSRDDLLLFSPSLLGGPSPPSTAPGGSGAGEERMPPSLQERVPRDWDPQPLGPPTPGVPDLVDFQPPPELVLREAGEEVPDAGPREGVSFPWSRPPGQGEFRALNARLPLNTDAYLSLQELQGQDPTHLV
T1 sequence 2: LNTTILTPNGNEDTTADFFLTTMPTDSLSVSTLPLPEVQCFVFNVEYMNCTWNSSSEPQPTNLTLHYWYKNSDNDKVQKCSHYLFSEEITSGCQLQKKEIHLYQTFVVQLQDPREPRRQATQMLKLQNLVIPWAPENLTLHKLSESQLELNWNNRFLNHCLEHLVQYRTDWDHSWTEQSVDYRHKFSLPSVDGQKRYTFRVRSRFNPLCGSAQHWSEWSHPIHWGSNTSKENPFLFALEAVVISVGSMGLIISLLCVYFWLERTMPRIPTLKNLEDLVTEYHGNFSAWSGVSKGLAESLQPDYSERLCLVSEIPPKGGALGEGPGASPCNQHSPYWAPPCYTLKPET
Assay: cell-based or functional assay

B1: B15 Variant 1 (chimeric BLV1H12-IL-15 fusion antibody) (antibody, human IgG1, lambda, L234A L235A)
heavy: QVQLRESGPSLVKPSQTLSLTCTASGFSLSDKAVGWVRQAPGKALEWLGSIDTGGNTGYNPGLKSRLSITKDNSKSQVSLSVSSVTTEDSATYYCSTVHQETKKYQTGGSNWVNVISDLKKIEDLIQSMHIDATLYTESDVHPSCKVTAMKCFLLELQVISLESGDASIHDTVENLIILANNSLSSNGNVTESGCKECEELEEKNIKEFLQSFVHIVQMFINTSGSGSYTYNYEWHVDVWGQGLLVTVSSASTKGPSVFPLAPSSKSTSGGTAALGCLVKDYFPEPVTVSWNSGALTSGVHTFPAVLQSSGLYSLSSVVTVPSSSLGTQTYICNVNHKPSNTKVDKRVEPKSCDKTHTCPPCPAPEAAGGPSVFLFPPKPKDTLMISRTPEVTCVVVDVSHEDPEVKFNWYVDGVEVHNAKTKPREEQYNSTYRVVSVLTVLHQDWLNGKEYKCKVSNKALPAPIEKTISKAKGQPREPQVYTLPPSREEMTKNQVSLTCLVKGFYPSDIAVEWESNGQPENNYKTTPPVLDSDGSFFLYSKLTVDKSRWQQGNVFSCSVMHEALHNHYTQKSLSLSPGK
light: QAVLNQPSSVSGSLGQKVTISCSGSSSNIGNNYVSWYQQLPGTAPKLLIYGDTKRPSGIPDRFSGSKSGTSATLGITGLQTGDEADYYCASAEDSSSNAVFGSGTTLTVLGQPKAAPSVTLFPPSSEELQANKATLVCLISDFYPGAVTVAWKADSSPVKAGVETTTPSKQSNNKYAASSYLSLTPEQWKSHRSYSCQVTHEGSTVEKTVAPTECS
B1 was tested, and the “EC50 (nM), STAT5 inducible SEAP reporter in HEK-Blue IL2 reporter cells” value was 0.032 nM.

B2: B15 Variant 3 (chimeric BLV1H12-IL-15 fusion antibody) (antibody, human IgG1, lambda, L234A L235A)
heavy: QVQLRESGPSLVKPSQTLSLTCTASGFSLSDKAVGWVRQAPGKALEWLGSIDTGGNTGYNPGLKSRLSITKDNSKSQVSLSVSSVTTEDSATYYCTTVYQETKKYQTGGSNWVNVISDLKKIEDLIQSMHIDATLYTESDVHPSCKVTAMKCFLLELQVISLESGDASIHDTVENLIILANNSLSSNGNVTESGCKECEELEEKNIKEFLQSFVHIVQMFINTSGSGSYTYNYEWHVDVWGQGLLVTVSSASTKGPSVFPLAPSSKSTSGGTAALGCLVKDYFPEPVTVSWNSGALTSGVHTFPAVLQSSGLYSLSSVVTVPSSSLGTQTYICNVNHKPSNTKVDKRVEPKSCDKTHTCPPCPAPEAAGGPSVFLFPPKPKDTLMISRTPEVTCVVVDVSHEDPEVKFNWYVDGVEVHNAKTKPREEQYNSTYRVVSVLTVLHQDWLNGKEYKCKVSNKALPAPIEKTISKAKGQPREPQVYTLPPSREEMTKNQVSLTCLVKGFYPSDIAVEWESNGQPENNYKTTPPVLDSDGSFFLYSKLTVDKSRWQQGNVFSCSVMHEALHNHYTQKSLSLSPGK
light: B1 light
B2 was tested, and the “EC50 (nM), STAT5 inducible SEAP reporter in HEK-Blue IL2 reporter cells” value was 0.026 nM.
